Reference: the nanobody polyreactivity screen of Harvey et al. (2022)

Test: yeast display, Sf9 membrane polyspecificity reagent, FACS + sequencing; frameworks hold sequencing errors
Outline: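 Nanobodies came from a synthetic yeast display library in Saccharomyces cerevisiae BJ5465, induced with galactose for 36–48 hours and stained for 1 hour at 4 °C with 10% biotinylated, detergent-solubilized Sf9 membrane reagent. Cells were enriched on streptavidin microbeads and then FACS-sorted, with low and high (top ~1%) gates set on anti-HA fluorescence for expression and streptavidin fluorescence for reagent binding. Each polyreactivity label reflects the gate a clone came from. Genes were amplified by colony PCR, sequenced by MiSeq 2 × 250 and filtered by CDR length.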

## QVQLVESGGGLVQAGRSLRLSCAASGSTFSHYAMGWYRQAPGKERELFATITGTGVRTYYADSVKGRFTISRDNAKNTVYLQMNSLKPEATAVYFCAVPPSIRGAQAQPWMDYWGQGTQVTVSS
  polyreactivity (PSR sort gate): low polyreactivity

## QVQLVESGGGLVQAGRSLRLSCAASRSIFARYAMAWYRQAPGKERELVAAINSTVSTNYADSVKGRFTISRENAKNTVYLQMNSLKPEDTAVSYCAVDMVRGGLDSWGQGTQVTVSS
  polyreactivity (PSR sort gate): low polyreactivity

## QVQLVESGGGLVQAGRSLRLSCAASVFTFYHYAMGWYRQAPGKVRELVAAISNSGVSTYYADSVKGRFTISRDNAKITVYLQLNSLKPEDTAVYYCNAVYQSYHISGDDYWGQGTQVTVSS
  polyreactivity (PSR sort gate): high polyreactivity

## QVQLVESGGGLVQAGRSLRLSCASSGRIFSSYAKGWYRQAPGKERELVAAITSGGSTDYADSVKGRFTISRDNAKNTVYLQIYRLNPEDTAVYYCAKAFLPPWTYSPYYLFYYWGQGTQVTVSS
  polyreactivity (PSR sort gate): low polyreactivity

## QVQLVESGGGLVQAGRSLRLSCGASGFTFGLYAMGWYRQATGKERELVAAITSSGRRTYYADSVKGRYTISRDKAKNTVSLEMNCLKPEDTAVYYFAKQAYDQSPYNYWGQGTQVTVSS
  polyreactivity (PSR sort gate): high polyreactivity

## QVQLVESGGGLVQAGRSLRLTCAASGRIFTPYAMGWYRQAPGTERELVATITLSGGSTYYADSVKGRFTISRDYAKNTVYLQMNSLKPEDTAVYYCNKDTHLHVVDYRTGYDCWGQGTQVTVSS
  polyreactivity (PSR sort gate): low polyreactivity

## QVQLVESGGGLVQAGRSLRLTCAASGRTFRAYTMGWYRQAPGKERDLVAAITSSGGGTYYADSVKGRFTISRDNAKNTVYLQMNSLKPEDTAVYYCNDRKQSYPDKYRRDYWGQGTQVTVSS
  polyreactivity (PSR sort gate): low polyreactivity

## QVQLVESGGGLVQAGSSLRLSCAASGRTLIYNAMGWYRQAPGKERELVASINRRGDSTYYADSVKGRFTISRDNAKNTVYLQMNSLKPEDTAVYYCAKVLYGGYPENRYFVGWGRDYWGQGTQVTVSS
  polyreactivity (PSR sort gate): high polyreactivity

## QVQLVESGGGLVQAGSSLRLSSAASGSIIGVNAKGRYRQAAGKERELVAAISSTGGSTYYADSVKGRYTISRDNAKNTVFLKMNSLKPDDTAVYYCNTDYSKSIGDGYSGFDYWGQGTQLTVSS
  polyreactivity (PSR sort gate): low polyreactivity

## QVQLVESGGGLVQAGSTLRLSCAASGRIFDLYTMGWYRQAPGKERELVAAIRWSDGSTYYADSVKGRFTISRDYAKNTVYLQMNSLKPEDTAVYYCAADTRTSYYNDDYDYWGQGTQVTVSS
  polyreactivity (PSR sort gate): low polyreactivity

## QVQLVESGGGLVQAGVRLRLSCAASGIIFRTYAMGWYRRAPGKERELVADITWSDGSTYYADSVKGRFTISRDNAKNTVYLQMNSLKPEDTAVYYCNADVLSDDSWWSYDYWGQGTQVTVSS
  polyreactivity (PSR sort gate): high polyreactivity

## QVQLVESGGGLVQAGVRLRLSCADSGSTFYLNAIGWYRQAPGKERELVAAITRVGRTYYADSVKGRFTISRDNAKNTVYLQMNSLKPEDTAVYYCNALGHYKLWGLGTQVTVSS
  polyreactivity (PSR sort gate): high polyreactivity

## QVQLVESGGGLVQAGVSHRLSCAASGRTFPGNAMGWYRQAPGKEREFVAAISYSGGRTYYADSVKGRFTISRDNAKNTVYLLMNSLKPEDTAVYYCAKRIVQPSVAAYYYWGLGTQVTVSS
  polyreactivity (PSR sort gate): high polyreactivity

## QVQLVESGGGLVQAGVSLRISCAASGFIFYYYAMGWYRQAPGKERELVAAISWSGGSTYYADSVKGRFTISRDNAKNTVYLQLNSLKPEDTSVYYCNARFRYARYSQRYDYWGQGTQVTVSS
  polyreactivity (PSR sort gate): high polyreactivity

## QVQLVESGGGLVQAGVSLRISCAASGSTFRGYVMGWYRPAPGKERELVAAISRSGTSTYYADSVKGRFTISRDNAKNTVYLQINSLKPEDTAVYYCAAQLYGHGEDYWGQGTQVTVSS
  polyreactivity (PSR sort gate): high polyreactivity

## QVQLVESGGGLVQAGVSLRLICAASGLTFQYNAMGWYRQAPGKEREMVASINSGGSTDYADSVKGRFTISRDNAKNTVYLQMNSLKPEDTAVYYCATSGYWYSASYGYEYWGQGTQVTVSS
  polyreactivity (PSR sort gate): low polyreactivity

## QVQLVESGGGLVQAGVSLRLSCAASGFIFYRYAMGWYRQAPRKERELVAAISWGGGSTTYYADSVKGRFTISRYNAKNTVYLQMNSLKPEDTAVYYCAKLRYPYLFWDDSEYWGQGTQVTVSS
  polyreactivity (PSR sort gate): low polyreactivity

## QVQLVESGGGLVQAGVSLRLSCAASGFSFAKNAMAWYRQAPGKERELVADITYSGGSTYADSVKGRFTISLDNAKNTVYFQMNSLKPEDTAVYYCAADSRRRSCYDYWVQGTQVTVSS
  polyreactivity (PSR sort gate): low polyreactivity

## QVQLVESGGGLVQAGVSLRLSCAASGGTFSRNAMGWYRQAPGKERELVAAINSSGVSTSYADSVKGRFTISRDNAKNTVYLQMNSLKPEDTAVYYCAAETSSAEVDYWGQGTQVTVSS
  polyreactivity (PSR sort gate): low polyreactivity

## QVQLVESGGGLVQAGVSLRLSCAASGIFRRYAMGWYIQAPGKERELVAAISSNGGSTYYADSVKGRFTISRDNAKNTVYLQMNSLKPEDTAVYYCNADVYVWNYYYWGQGTQVTVSS
  polyreactivity (PSR sort gate): high polyreactivity

## QVQLVESGGGLVQAGVSLRLSCAASGLIFVFYAMGWYRQAPGKERELVAAISRSGTSTYADSVKGRFTISRDNAKNTVYLQMNSLKPADTAVYYCNAYRYYSPYGYWGQGTQVTVSS
  polyreactivity (PSR sort gate): low polyreactivity

## QVQLVESGGGLVQAGVSLRLSCAASGRIFNGNAMGWYRQAPGIEWELVATITRGGGSTYYADSVKGRFTISRDNAKKTVYLQMNSLKPEDTAVYSCNVPPPTQVRYRSDHWGQGTQVTVSS
  polyreactivity (PSR sort gate): low polyreactivity

## QVQLVESGGGLVQAGVSLRLSCAASGRTFALNVMGWYRQAPGKERELVAAISRSGGSTYYAESVKGRFTISRDNAKNTVYLQMNSLKPEDTAVYYCAAATHYQSYNRRDYWGQGTQVTVSS
  polyreactivity (PSR sort gate): high polyreactivity

## QVQLVESGGGLVQAGVSLRLSCAASGRTFEYNAMGWYRQAPGKERELVATIRYSGTSTYADSVKGRFTISRDNAKNTVYLQMNSLKPEDSAVYYFAKQVRYYGYKYNYWGLGTQVTVSS
  polyreactivity (PSR sort gate): high polyreactivity

## QVQLVESGGGLVQAGVSLRLSCAASGRTFFLYAMGWYRQAPGKERELVARISTSGGGTYYADSVKGRFTISRDNAKYTVYLQMNSLKPEDTAVYYCAARTFRGQRRAGGYDYWGQGTQVTVSS
  polyreactivity (PSR sort gate): high polyreactivity

## QVQLVESGGGLVQAGVSLRLSCAASGRTFRHNVMGRYRQAPGKERELVAAISYSGGSTHYADSVKGRFTISRDNAKNTVYLQMNSQKPEDTAVYYCNRYSYDSHFLYPFRGHDYWGQGTQVTVSS
  polyreactivity (PSR sort gate): low polyreactivity

## QVQLVESGGGLVQAGVSLRLSCAASGRTFRRYVMGWNRQAPGKERELVASITRGTGTDYADSVKGRFTISRDNRMNTVYLQMNSLKPEDTAVYYGNVKFGQPIYGEFDYWGQGTQVTVSS
  polyreactivity (PSR sort gate): low polyreactivity

## QVQLVESGGGLVQAGVSLRLSCAASGRTFYGNAMGWYRQAPGKERELVAAISRSGGRTYYADSVKGRFTISRDNAKNTVYLQMNSLKPEDTAVYYCAKDYYYPSHTYGYWGQGTQVTVSS
  polyreactivity (PSR sort gate): high polyreactivity

## QVQLVESGGGLVQAGVSLRLSCAASGSIFGFNAMGWYRQAPGKEWELVAAINNGGSTNYADSVKGRFTISRDNAKNTVYLQMNSLKPEDTAVYYFAAERWFYRSKFDYWGQGTQVTVSS
  polyreactivity (PSR sort gate): high polyreactivity

## QVQLVESGGGLVQAGVSLRLSCAASGSTFRKYTMGWSRQAPGKERELVAAITYRGDRTYYADSVKGRFTISRDNAKNTVFIQMNSLIPEDTAVYYCASTSYYGAVWYIFYYWGQGTQVTVSS
  polyreactivity (PSR sort gate): high polyreactivity

## QVQLVESGGGLVQAGVSLRLSCAASGSTFRRYAMGWYRQAPGKAWEISTSDGSTYYADSVKGRFTISRDNAKNTVYLQMNSLKPEDTAVYYCAADGYRQLIEDITDDYWGQGTQVTVSS
  polyreactivity (PSR sort gate): low polyreactivity

## QVQLVESGGGLVQAGVSLRLSCASSGIIFPDYAMGWYRQAPGKERELVAAITRSGGRTFYADSVKGRFTISRDTAKNSVYLQMKSLKPEDTAVYYCAVSYSYLYYYWGQGTQVTVSS
  polyreactivity (PSR sort gate): high polyreactivity
